# Test results from US20250099634A1, “METHOD OF TREATING CANCER” (Novartis AG, priority 2023, published 2025).
# Like-named read-outs stand apart in the source and are kept apart here.
# Assays:
# [1] = test system: serum inhibin B; settings: human, in vivo; cited from earlier work
# [2] = molecular target: OCT1 (Homo sapiens, UniProt O15245)
# [3] = molecular target: P-glycoprotein (efflux transporter) (Homo sapiens, UniProt P08183)
# [4] = molecular target: OAT1 (Homo sapiens, UniProt Q4U2R8)
# [5] = in vivo; cited from earlier work
# [6] = test system: midgut carcinoid tumors; settings: NETTER-1, cited from earlier work
# [7] = molecular target: BCRP (Homo sapiens, UniProt Q9UNQ0); settings: not told
# [8] = in vivo; cited from earlier work; remark: listed apart in the source
# [9] = molecular target: OAT3 (Homo sapiens, UniProt Q8TCC7)
# [10] = molecular target: OCT2 (Homo sapiens, UniProt O15244)
# [11] = molecular target: OATP1B1 (Homo sapiens, UniProt Q9Y6L6)
# [12] = NETTER-2 worst post-baseline hematology abnormalities based on CTC grades (Safety Set); assay type: in vivo, human
# Source text: The laboratory assessments require that blood samples for hematology and blood chemistry, and a urine sample for urinalysis are taken. Laboratory assessments will be performed at the investigational site.
# Blood tests performed 4 weeks after any treatment cannot serve as baseline values for the next treatment.
# All laboratory data will be listed by treatment group, subject, and visit/time and if normal ranges are available abnormalities will be flagged. Summary statistics will be provided by treatment and visit/time. Shift tables using the low/normal/high/(low and high) classification will be used to compare baseline to the worst on-treatment value.
# Grading of laboratory values will be assigned programmatically as per NCI Common Terminology Criteria for Adverse Events (CTCAE) version 5.0 or current version. The calculation of CTCAE grades will be based on the observed laboratory values only, clinical assessments will not be taken into account.
# The following summaries will be generated separately for hematology, and biochemistry tests: • 1. Listing of all laboratory data with values flagged to show the corresponding CTCAE grades if applicable and the classifications relative to the laboratory normal ranges • 2. For laboratory tests where grades are defined by CTCAE, • 3. Worst post-baseline CTCAE grade (regardless of the baseline status). Each subject will be counted only once for the worst grade observed post-baseline. • 4. Shift tables using CTCAE grades to compare baseline to the worst on-treatment value • 5. For laboratory tests where grades are not defined by CTCAE, • 6. Shift tables using the low/normal/high/(low and high) classification to compare baseline to the worst on-treatment value.
# [13] = All grades, randomized treatment period, Safety Set
# [14] = Grade >=3, randomized treatment period, Safety Set
# [15] = all grades, randomized treatment period
# [16] = most frequent AEs, summary table
# Chain of OCT1 (O15245 whole entry): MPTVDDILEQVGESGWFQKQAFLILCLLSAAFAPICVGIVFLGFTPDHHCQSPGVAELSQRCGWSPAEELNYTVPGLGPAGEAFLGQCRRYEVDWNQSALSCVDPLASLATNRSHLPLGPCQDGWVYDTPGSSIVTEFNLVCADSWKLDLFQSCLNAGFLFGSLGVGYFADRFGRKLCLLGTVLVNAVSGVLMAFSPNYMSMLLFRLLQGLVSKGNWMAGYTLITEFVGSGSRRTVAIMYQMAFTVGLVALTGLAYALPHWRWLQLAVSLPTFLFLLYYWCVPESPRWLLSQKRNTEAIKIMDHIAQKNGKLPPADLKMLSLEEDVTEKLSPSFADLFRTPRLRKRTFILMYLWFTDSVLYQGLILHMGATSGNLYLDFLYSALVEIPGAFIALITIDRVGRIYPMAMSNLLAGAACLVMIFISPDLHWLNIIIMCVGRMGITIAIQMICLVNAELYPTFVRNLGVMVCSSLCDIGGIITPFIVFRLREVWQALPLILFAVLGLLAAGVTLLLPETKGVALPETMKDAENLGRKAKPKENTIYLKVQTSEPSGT
# Chain of OCT2 (O15244 whole entry): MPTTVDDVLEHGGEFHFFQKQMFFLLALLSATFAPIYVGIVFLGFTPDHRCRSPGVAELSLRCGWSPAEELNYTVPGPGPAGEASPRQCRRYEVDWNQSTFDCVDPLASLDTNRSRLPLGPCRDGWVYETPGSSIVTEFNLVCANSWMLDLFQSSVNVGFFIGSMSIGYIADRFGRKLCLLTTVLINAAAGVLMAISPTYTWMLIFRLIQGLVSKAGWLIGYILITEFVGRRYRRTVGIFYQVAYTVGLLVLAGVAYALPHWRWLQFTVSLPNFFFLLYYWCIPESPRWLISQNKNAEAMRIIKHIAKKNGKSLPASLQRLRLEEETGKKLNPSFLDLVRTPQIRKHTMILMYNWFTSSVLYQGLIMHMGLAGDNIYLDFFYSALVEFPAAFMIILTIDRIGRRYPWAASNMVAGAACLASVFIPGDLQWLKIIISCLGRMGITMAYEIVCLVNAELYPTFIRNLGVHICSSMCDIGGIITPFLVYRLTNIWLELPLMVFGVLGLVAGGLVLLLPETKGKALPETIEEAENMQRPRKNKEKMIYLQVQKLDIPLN
# Chain of BCRP (Q9UNQ0 whole entry): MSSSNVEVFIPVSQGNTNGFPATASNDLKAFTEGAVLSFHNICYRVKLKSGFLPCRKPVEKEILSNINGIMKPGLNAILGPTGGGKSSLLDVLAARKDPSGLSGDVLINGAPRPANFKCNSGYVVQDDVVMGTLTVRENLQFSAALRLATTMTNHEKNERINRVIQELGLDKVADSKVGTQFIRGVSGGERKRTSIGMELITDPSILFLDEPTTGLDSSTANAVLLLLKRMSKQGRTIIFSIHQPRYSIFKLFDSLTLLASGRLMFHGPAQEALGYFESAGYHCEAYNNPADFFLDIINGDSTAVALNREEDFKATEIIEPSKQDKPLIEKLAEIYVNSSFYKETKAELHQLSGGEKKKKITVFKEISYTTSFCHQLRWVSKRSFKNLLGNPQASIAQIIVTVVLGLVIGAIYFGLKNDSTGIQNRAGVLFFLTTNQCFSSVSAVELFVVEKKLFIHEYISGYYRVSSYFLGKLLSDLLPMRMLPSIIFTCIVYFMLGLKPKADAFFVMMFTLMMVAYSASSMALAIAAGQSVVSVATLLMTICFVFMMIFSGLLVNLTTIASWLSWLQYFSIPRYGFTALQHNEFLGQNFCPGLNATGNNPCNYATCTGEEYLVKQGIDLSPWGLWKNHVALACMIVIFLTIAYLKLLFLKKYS
# Chain of OAT3 (Q8TCC7 whole entry): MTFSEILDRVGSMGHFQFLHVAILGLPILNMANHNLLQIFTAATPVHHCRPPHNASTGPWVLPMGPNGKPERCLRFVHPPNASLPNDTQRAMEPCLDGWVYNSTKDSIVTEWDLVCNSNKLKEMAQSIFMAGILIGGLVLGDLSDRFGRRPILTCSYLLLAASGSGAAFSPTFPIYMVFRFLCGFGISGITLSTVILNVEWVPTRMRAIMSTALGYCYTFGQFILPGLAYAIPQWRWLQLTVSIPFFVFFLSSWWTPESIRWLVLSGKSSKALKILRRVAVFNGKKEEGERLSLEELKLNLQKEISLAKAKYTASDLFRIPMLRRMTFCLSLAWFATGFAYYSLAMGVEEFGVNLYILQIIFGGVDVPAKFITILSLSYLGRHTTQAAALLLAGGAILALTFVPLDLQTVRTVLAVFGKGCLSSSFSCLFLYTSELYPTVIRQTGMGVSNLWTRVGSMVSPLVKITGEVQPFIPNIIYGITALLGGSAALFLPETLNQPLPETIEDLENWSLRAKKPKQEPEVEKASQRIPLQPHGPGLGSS
# Chain of OAT1 (Q4U2R8 whole entry): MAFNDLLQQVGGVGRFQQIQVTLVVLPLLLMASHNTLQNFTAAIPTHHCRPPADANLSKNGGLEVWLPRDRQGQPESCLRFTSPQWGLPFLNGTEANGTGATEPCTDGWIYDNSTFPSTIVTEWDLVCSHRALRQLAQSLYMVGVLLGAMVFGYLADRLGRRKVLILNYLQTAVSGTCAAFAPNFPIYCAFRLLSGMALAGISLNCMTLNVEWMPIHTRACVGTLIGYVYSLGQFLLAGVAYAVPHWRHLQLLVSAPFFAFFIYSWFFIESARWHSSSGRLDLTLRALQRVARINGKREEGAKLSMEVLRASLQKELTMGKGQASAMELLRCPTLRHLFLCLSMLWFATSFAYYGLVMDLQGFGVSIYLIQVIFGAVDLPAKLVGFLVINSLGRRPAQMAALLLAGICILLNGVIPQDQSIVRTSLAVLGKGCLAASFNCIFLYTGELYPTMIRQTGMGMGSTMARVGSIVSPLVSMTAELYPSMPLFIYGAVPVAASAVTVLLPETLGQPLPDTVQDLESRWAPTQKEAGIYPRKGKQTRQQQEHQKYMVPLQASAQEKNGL
# Chain of OATP1B1 (Q9Y6L6 whole entry): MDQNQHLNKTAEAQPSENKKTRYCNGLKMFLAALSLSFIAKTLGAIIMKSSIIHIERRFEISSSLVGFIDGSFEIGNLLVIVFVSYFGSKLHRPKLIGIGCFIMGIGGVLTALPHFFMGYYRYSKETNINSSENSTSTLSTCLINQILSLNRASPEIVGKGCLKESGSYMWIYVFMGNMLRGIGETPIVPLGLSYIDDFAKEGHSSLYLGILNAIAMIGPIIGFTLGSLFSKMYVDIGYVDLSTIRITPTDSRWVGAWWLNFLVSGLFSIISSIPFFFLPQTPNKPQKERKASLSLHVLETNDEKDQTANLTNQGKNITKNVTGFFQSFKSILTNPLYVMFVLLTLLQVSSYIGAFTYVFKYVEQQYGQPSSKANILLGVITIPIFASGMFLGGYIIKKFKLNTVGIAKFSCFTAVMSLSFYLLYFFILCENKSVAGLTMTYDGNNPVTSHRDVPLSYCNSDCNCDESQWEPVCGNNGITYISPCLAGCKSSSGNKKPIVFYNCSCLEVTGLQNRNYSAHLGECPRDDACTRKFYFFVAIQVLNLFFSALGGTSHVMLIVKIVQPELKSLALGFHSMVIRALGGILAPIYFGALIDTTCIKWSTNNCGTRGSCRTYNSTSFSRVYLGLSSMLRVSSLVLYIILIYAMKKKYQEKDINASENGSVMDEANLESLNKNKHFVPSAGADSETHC
# Chain of P-glycoprotein (efflux transporter) (P08183 whole entry): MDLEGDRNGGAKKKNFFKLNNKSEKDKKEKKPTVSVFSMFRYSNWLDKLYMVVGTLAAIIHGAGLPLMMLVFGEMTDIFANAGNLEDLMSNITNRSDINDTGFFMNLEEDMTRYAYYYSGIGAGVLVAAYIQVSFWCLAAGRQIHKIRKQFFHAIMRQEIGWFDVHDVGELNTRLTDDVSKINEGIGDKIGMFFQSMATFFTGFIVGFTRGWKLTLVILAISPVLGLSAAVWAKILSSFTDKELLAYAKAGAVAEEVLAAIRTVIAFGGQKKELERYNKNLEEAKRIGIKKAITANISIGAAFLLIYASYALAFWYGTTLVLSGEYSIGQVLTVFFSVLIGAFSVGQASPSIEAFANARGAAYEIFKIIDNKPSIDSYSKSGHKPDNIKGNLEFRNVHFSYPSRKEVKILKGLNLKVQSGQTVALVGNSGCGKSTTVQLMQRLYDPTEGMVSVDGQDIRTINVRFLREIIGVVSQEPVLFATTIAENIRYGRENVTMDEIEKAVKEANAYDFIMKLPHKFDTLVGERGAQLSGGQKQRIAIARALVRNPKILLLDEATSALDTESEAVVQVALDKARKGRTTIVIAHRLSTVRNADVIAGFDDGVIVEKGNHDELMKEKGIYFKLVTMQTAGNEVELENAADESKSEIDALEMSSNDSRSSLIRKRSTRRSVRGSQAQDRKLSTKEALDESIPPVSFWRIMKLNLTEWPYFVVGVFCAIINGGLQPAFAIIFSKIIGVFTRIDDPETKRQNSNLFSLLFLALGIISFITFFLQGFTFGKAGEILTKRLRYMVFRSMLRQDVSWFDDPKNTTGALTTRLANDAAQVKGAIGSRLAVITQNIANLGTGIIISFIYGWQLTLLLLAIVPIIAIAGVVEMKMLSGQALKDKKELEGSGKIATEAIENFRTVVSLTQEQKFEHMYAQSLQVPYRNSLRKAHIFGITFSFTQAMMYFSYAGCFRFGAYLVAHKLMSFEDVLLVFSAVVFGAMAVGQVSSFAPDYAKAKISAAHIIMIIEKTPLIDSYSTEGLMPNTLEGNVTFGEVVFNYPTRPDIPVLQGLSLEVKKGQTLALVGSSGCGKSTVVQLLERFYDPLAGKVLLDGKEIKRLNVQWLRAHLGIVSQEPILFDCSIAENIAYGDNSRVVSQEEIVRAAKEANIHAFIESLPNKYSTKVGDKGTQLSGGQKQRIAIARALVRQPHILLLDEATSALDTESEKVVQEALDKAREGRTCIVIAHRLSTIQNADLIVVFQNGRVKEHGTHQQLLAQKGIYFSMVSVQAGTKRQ
smiles,measurement,setting,value
"C[C@@H](O)[C@H](NC(=O)[C@@H]1CSSC[C@H](NC(=O)[C@@H](Cc2ccccc2)NC(=O)CN2CCN(CC(=O)[O-])CCN(CC(=O)[O-])CCN(CC(=O)[O-])CC2)C(=O)N[C@@H](Cc2ccc(O)cc2)C(=O)N[C@H](Cc2c[nH]c3ccccc23)C(=O)N[C@@H](CCCCN)C(=O)N[C@@H]([C@@H](C)O)C(=O)N1)C(=O)O.[177Lu+3] [Lutathera, ^177Lu-DOTA^0-Tyr^3-Octreotate]",mean serum inhibin B levels,[1],significant decrease
same,interaction with OCT1,[2],absence of specific interaction
same,interaction with P-glycoprotein,[3],absence of specific interaction
same,interaction with OAT1,[4],absence of specific interaction
same,delayed bone marrow toxicity,[5],1.5 to 2%
same,risk reduction in likelihood of progression or death event,[6]; Lutathera versus 60 mg octreotide long-acting,79%
same,confirmed events (disease progressions RECIST 1.1 centrally assessed or deaths),[6],21
same,median PFS,[6],not yet been reached
same,interaction with BCRP,[7],absence of specific interaction
same,Clinically significant myelosuppression,[8],less than 10%
same,grade 3 or 4 lymphopenia,[8],9%
same,grade 3 or 4 neutropenia,[8],1%
same,grade 3 or 4 thrombocytopenia,[8],2%
same,renal toxicities within the period of observation,[8],no evidence of renal toxicities
same,interaction with OAT3,[9],absence of specific interaction
same,interaction with OCT2,[10],absence of specific interaction
same,interaction with OATP1B1,[11],absence of specific interaction
same,"AEs leading to discontinuation of Any Treatment (Lutathera, Octreotide)",[13],7 (4.8) n (%)
same,AEs leading to discontinuation of Lutathera,[13],3 (2.0) n (%)
same,AEs leading to discontinuation of Octreotide,[13],5 (3.4) n (%)
same,"AEs leading to dose interruption of Any Treatment (Lutathera, Octreotide)",[13],23 (15.6) n (%)
same,AEs leading to dose interruption of Lutathera,[13],14 (9.5) n (%)
same,"AEs leading to dose reduction of Any Treatment (Lutathera, Octreotide)",[13],3 (2.0) n (%)
same,AEs leading to dose reduction of Lutathera,[13],2 (1.4) n (%)
same,AEs leading to dose reduction of Octreotide,[13],1 (0.7) n (%)
same,AEs requiring additional therapy,[13],109 (74.1) n (%)
same,Adverse event: Abdominal pain,[13],26 (17.7) n (%)
same,Adverse event: Alanine aminotransferase increased,[13],16 (10.9) n (%)
same,Adverse event: Alopecia,[13],22 (15.0) n (%)
same,Adverse event: Anaemia,[13],29 (19.7) n (%)
same,Adverse event: Aspartate aminotransferase increased,[13],16 (10.9) n (%)
same,Adverse event: Asthenia,[13],28 (19.0) n (%)
same,Adverse event: COVID-19,[13],28 (19.0) n (%)
same,Adverse event: Constipation,[13],15 (10.2) n (%)
same,Adverse event: Diarrhoea,[13],38 (25.9) n (%)
same,Adverse event: Fatigue,[13],29 (19.7) n (%)
same,Adverse event: Gamma-glutamyltransferase increased,[13],12 (8.2) n (%)
same,Adverse event: Headache,[13],16 (10.9) n (%)
same,Adverse event: Hyperglycaemia,[13],20 (13.6) n (%)
same,Adverse event: Lymphocyte count decreased,[13],16 (10.9) n (%)
same,Adverse event: Nausea,[13],40 (27.2) n (%)
same,Adverse event: Oedema peripheral,[13],17 (11.6) n (%)
same,Adverse event: Platelet count decreased,[13],25 (17.0) n (%)
same,Adverse event: Vomiting,[13],21 (14.3) n (%)
same,Adverse event: Weight increased,[13],18 (12.2) n (%)
same,Adverse events,[13],136 (92.5) n (%)
same,Adverse events Related to Amino Acids,[13],22 (15.0) n (%)
same,Adverse events Related to Any Treatment,[13],101 (68.7) n (%)
same,Adverse events Related to Lutathera,[13],96 (65.3) n (%)
same,Adverse events Related to Octreotide,[13],55 (37.4) n (%)
same,Adverse events: Number of subjects with at least one event,[13],136 (92.5) n (%)
same,"AEs leading to discontinuation of Any Treatment (Lutathera, Octreotide)",[14],4 (2.7) n (%)
same,AEs leading to discontinuation of Lutathera,[14],1 (0.7) n (%)
same,AEs leading to discontinuation of Octreotide,[14],3 (2.0) n (%)
same,"AEs leading to dose interruption of Any Treatment (Lutathera, Octreotide)",[14],7 (4.8) n (%)
same,AEs leading to dose interruption of Lutathera,[14],3 (2.0) n (%)
same,AEs leading to dose interruption of Octreotide,[14],7 (4.8) n (%)
same,"AEs leading to dose reduction of Any Treatment (Lutathera, Octreotide)",[14],1 (0.7) n (%)
same,AEs leading to dose reduction of Lutathera,[14],1 (0.7) n (%)
same,AEs leading to dose reduction of Octreotide,[14],0 n (%)
same,AEs requiring additional therapy,[14],28 (19.0) n (%)
same,Adverse event: Abdominal pain,[14],4 (2.7) n (%)
same,Adverse event: Alanine aminotransferase increased,[14],1 (0.7) n (%)
same,Adverse event: Alopecia,[14],0 n (%)
same,Adverse event: Anaemia,[14],1 (0.7) n (%)
same,Adverse event: Aspartate aminotransferase increased,[14],1 (0.7) n (%)
same,Adverse event: Asthenia,[14],1 (0.7) n (%)
same,Adverse event: COVID-19,[14],0 n (%)
same,Adverse event: Constipation,[14],1 (0.7) n (%)
same,Adverse event: Decreased appetite,[14],0 n (%)
same,Adverse event: Diarrhoea,[14],2 (1.4) n (%)
same,Adverse event: Fatigue,[14],0 n (%)
same,Adverse event: Gamma-glutamyltransferase increased,[14],7 (4.8) n (%)
same,Adverse event: Headache,[14],0 n (%)
same,Adverse event: Hyperglycaemia,[14],0 n (%)
same,Adverse event: Lymphocyte count decreased,[14],8 (5.4) n (%)
same,Adverse event: Nausea,[14],1 (0.7) n (%)
same,Adverse event: Oedema peripheral,[14],0 n (%)
same,Adverse event: Platelet count decreased,[14],2 (1.4) n (%)
same,Adverse event: Vomiting,[14],1 (0.7) n (%)
same,Adverse event: Weight increased,[14],2 (1.4) n (%)
same,Adverse event: White blood cell count decreased,[14],3 (2.0) n (%)
same,Adverse events,[14],52 (35.4) n (%)
same,Adverse events Related to Amino Acids,[14],1 (0.7) n (%)
same,Adverse events Related to Any Treatment,[14],23 (15.6) n (%)
same,Adverse events Related to Lutathera,[14],22 (15.0) n (%)
same,Adverse events Related to Octreotide,[14],2 (1.4) n (%)
same,Adverse events: Number of subjects with at least one event,[14],52 (35.4) n (%)
same,adverse event by preferred term: abdominal pain,[15],17.7%
same,adverse event by preferred term: diarrhoea,[15],25.9%
same,adverse event by preferred term: nausea,[15],27.2%
same,safety findings in NETTER-2,consistent with established safety profile,No new or unexpected safety findings
same,Incidence of AEs: Abdominal pain,[16],26 (17.7) (%)
same,Incidence of AEs: Diarrhoea,[16],38 (25.9) (%)
same,Incidence of AEs: Nausea,[16],40 (27.2) (%)
same,AEs leading to discontinuation of Lutathera,randomized treatment period,2.0% vs. NA
same,AEs leading to discontinuation of Lutathera and/or Octreotide,randomized treatment period,4.8%
same,AEs leading to discontinuation of Octreotide,randomized treatment period,3.4%
same,Any AEs,randomized treatment period,92.5%
same,Grade 3/4 AE: GGT increased,randomized treatment period,4.8%
same,Grade 3/4 AE: Lymphocyte count decreased,randomized treatment period,5.4%
same,Grade 3/4 AE: abdominal pain,randomized treatment period,2.7%
same,Grade 3/4 AE: small intestinal obstruction,randomized treatment period,3.4%
same,Grade ≥3 AEs,randomized treatment period,35.4%
same,"Grade ≥3 AEs, Treatment-related",randomized treatment period,15.6%
same,Worst post-baseline abnormality: Neutrophils (10E9/L)-Decrease,"[12]; All grades (CTCAE v5.0), randomized treatment period, Safety Set",55 (37.4) n (%)
same,Grade 3/4 hematologic lab abnormality: lymphocytes decrease,[12]; in vivo,38.1%
same,Worst post-baseline abnormality: Leukocytes (10E9/L)-Increase,[12]; in vivo,0 n (%)
same,Worst post-baseline abnormality: Neutrophils (10E9/L)-Decrease,[12]; in vivo,5 (3.4) n (%)
